Measurements: US20250084179A1 (Xencor, published 2025)

T1: Cyno TROP2 (Macaca fascicularis, UniProt A0A2K5UE71)
T1 construct: Construct used in the measurement is not described; also called cynomolgus TROP2
T1 sequence (antigen): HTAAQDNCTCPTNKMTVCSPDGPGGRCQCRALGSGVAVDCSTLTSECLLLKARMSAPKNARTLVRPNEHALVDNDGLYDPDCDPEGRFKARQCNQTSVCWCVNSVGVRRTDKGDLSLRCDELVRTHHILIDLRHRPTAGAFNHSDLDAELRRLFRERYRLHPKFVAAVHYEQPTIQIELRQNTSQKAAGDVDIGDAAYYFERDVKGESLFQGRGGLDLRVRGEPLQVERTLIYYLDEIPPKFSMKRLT

T2: TROP2 (UniProt P09758 27-274, limits assumed)
T2 construct: also called tumor-associated calcium signal transducer 2; TACSTD2
T2 sequence (looked up): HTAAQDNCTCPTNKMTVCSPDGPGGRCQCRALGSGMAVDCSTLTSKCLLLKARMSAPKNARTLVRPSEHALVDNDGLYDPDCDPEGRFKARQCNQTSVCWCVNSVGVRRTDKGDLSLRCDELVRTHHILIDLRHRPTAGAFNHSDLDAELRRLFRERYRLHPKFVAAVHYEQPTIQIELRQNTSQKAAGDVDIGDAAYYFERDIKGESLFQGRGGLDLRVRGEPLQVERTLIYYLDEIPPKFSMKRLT


Legend:
human CD28 = target: T3, human CD28 (human, UniProt P10747 19-152, limits assumed); experiment: Octet, monovalent KD of Fab
T3 construct: also called Cluster of Differentiation 28; Tp44

Cyno TROP2 = target: T1, Cyno TROP2; experiment: not stated; bivalent format
TROP2 [1] = target: T2, TROP2; experiment: not stated; bivalent format
TROP2 [2] = target: T2, TROP2; experiment: monovalent KD; method not stated
TROP2 [3] = target: T2, TROP2; experiment: KD; method and format not stated

| Binder | Kd (human CD28) | Kd (Cyno TROP2) | koff (Cyno TROP2) | kon (Cyno TROP2) | Kd (TROP2 [1]) | koff (TROP2 [1]) | kon (TROP2 [1]) | Kd (TROP2 [2]) | Kd (TROP2 [3]) |
| --- | --- | --- | --- | --- | --- | --- | --- | --- | --- |
| 1A7_H1.106_IGKV1-39_L1 (Fab, V domains shown, also called 1A7[CD28]_H1.106 paired with IGKV1-39 germline VL (1F11-1A3.315 L1)) VH: EVQLLESGGGLVQPGGSLRLSCAASGFTFSSYYMSWVRQAPGKGLEWVSTISERGDSTYYADSVKGRFTISRDNSKNTLYLQMNSLRAEDTAVYYCAKSGPGLRQVGFDYWGQGTLVTVSS VL: not shown | 43 nM | – | – | – | – | – | – | – | – |
| 1A7_H1.114_IGKV1-39_L1 (Fab, V domains shown, also called 1A7[CD28]_H1.114 paired with IGKV1-39 germline VL (1F11-1A3.315 L1)) VH: EVQLLESGGGLVQPGGSLRLSCAASGFTFSSYYMSWVRQAPGKGLEWVSTIAERGDSTYYADSVKGRFTISRDNSKNTLYLQMNSLRAEDTAVYYCAKSGPGLRQVGFDYWGQGTLVTVSS VL: not shown | 44 nM | – | – | – | – | – | – | – | – |
| 1A7_H1.125_IGKV1-39_L1 (Fab, V domains shown, also called 1A7[CD28]_H1.125 paired with IGKV1-39 germline VL (1F11-1A3.315 L1)) VH: EVQLLESGGGLVQPGGSLRLSCAASGFTFSSYYMSWVRQAPGKGLEWVSTISEHGLSTYYADSVKGRFTISRDNSKNTLYLQMNSLRAEDTAVYYCAKSGPGLRQVGFDYWGQGTLVTVSS VL: not shown | 28 nM | – | – | – | – | – | – | – | – |
| 1A7_H1.113_IGKV1-39_L1 (Fab, V domains shown, also called 1A7[CD28]_H1.113 paired with IGKV1-39 germline VL (1F11-1A3.315 L1)) VH: EVQLLESGGGLVQPGGSLRLSCAASGFTFSSYYMSWVRQAPGKGLEWVSTISERTDSTYYADSVKGRFTISRDNSKNTLYLQMNSLRAEDTAVYYCAKSGPGLRQVGFDYWGQGTLVTVSS VL: not shown | 29 nM | – | – | – | – | – | – | – | – |
| 1A7_H1.107_IGKV1-39_L1 (Fab, V domains shown, also called 1A7[CD28]_H1.107 paired with IGKV1-39 germline VL (1F11-1A3.315 L1)) VH: EVQLLESGGGLVQPGGSLRLSCAASGFTFSSYYMSWVRQAPGKGLEWVSTISESSDVTYYADSVKGRFTISRDNSKNTLYLQMNSLRAEDTAVYYCAKSGPGLRQVGFDYWGQGTLVTVSS VL: not shown | 57 nM | – | – | – | – | – | – | – | – |
| 1A7_H1.111_IGKV1-39_L1 (Fab, V domains shown, also called 1A7[CD28]_H1.111 paired with IGKV1-39 germline VL (1F11-1A3.315 L1)) VH: EVQLLESGGGLVQPGGSLRLSCAASGFTFSSYYMSWVRQAPGKGLEWVSTISERSDSTYYADSVKGRFTISRDNSKNTLYLQMNSLRAEDTAVYYCAKSGPGLRQVGFDYWGQGTLVTVSS VL: not shown | 20 nM | – | – | – | – | – | – | – | – |
| 1A7_H1.130_IGKV1-39_L1 (Fab, V domains shown, also called 1A7[CD28]_H1.130 paired with IGKV1-39 germline VL (1F11-1A3.315 L1)) VH: EVQLLESGGGLVQPGGSLRLSCAASGFTFSSYYMSWVRQAPGKGLEWVSTISERGDVTYYADSVKGRFTISRDNSKNTLYLQMNSLRAEDTAVYYCAKSGPGLRQVGFDYWGQGTLVTVSS VL: not shown | 46 nM | – | – | – | – | – | – | – | – |
| 1F11-1A3.315_H1L1 (antibody, V domains shown, also called 1F11-1A3.315[Trop2]_H1 with L1; copies: 1 + 1) VH: QVQLVQSGAEVKKPGASVKVSCKASGYTFTRYYMHWVRQAPGQGLEWMGIINPGGGSTGYAQKFQGRVTMTRDTSTSTVYMELSSLRSEDTAVYYCARDDVVAADVFDYWGQGTLVTVSS VL: not shown | – | 9.9 nM | 0.0021 s⁻¹ | 210000 M⁻¹ s⁻¹ | 6.5 nM | 0.0012 s⁻¹ | 190000 M⁻¹ s⁻¹ | 13 nM | – |
| 1F11-1A3.315[Trop2]_H1.31_L1 (antibody, V domains shown) VH: QVQLVQSGAEVKKPGASVKVSCKASGYTLTRYYVHWVRQAPGQGLEWMGIIEPGGGSTDYAQKFQGRVTMTRDTSTSTVYMELSSLRSEDTAVYYCARDDVVKADVFDYWGQGTLVTVSS VL: not shown | – | 0.48 nM | 0.00014 s⁻¹ | 300000 M⁻¹ s⁻¹ | 0.43 nM | 0.00013 s⁻¹ | 300000 M⁻¹ s⁻¹ | – | – |
| 1F11-1A3.315[Trop2]_H1.30_L1 (antibody, V domains shown) VH: QVQLVQSGAEVKKPGASVKVSCKASGYTLTRYYVHWVRQAPGQGLEWMGIIEPGGGSTLYAQKFQGRVTMTRDTSTSTVYMELSSLRSEDTAVYYCARDDVTAADVFDYWGQGTLVTVSS VL: not shown | – | 3.7 nM | 0.00055 s⁻¹ | 150000 M⁻¹ s⁻¹ | 2.2 nM | 0.00037 s⁻¹ | 170000 M⁻¹ s⁻¹ | – | – |
| 1F11-1A3.315[Trop2]_H1.23_L1 (antibody, V domains shown) VH: QVQLVQSGAEVKKPGASVKVSCKASGYTFTRYYVHWVRQAPGQGLEWMGIINPGGGSTGYAQKFQGRVTMTRDTSTSTVYMELSSLRSEDTAVYYCARDDVVAADVFDYWGQGTLVTVSS VL: not shown | – | 11 nM | 0.0026 s⁻¹ | 230000 M⁻¹ s⁻¹ | 7.2 nM | 0.0012 s⁻¹ | 170000 M⁻¹ s⁻¹ | – | – |
| 1F11-1A3.315[Trop2]_H1.29_L1 (antibody, V domains shown) VH: QVQLVQSGAEVKKPGASVKVSCKASGYTLTRYYVHWVRQAPGQGLEWMGIIEPGGGSTDYAQKFQGRVTMTRDTSTSTVYMELSSLRSEDTAVYYCARDDVTAADVFDYWGQGTLVTVSS VL: not shown | – | 2.1 nM | 0.00038 s⁻¹ | 190000 M⁻¹ s⁻¹ | 2.1 nM | 0.00029 s⁻¹ | 150000 M⁻¹ s⁻¹ | – | – |
| 1F11-1A3.315[Trop2]_H1.26_L1 (antibody, V domains shown) VH: QVQLVQSGAEVKKPGASVKVSCKASGYTFTRYYMHWVRQAPGQGLEWMGIINPGGGSTGYAQKFQGRVTMTRDTSTSTVYMELSSLRSEDTAVYYCARDDVMAADVFDYWGQGTLVTVSS VL: not shown | – | 6.2 nM | 0.0015 s⁻¹ | 250000 M⁻¹ s⁻¹ | 4.6 nM | 0.00088 s⁻¹ | 190000 M⁻¹ s⁻¹ | – | – |
| 1F11-1A3.315[Trop2]_H1.25_L1 (antibody, V domains shown) VH: QVQLVQSGAEVKKPGASVKVSCKASGYTFTRYYMHWVRQAPGQGLEWMGIINPGGGSTLYAQKFQGRVTMTRDTSTSTVYMELSSLRSEDTAVYYCARDDVVAADVFDYWGQGTLVTVSS VL: not shown | – | 14 nM | 0.0027 s⁻¹ | 190000 M⁻¹ s⁻¹ | 8.5 nM | 0.0014 s⁻¹ | 170000 M⁻¹ s⁻¹ | – | – |
| 1F11-1A3.315[Trop2]_H1.28_L1 (antibody, V domains shown) VH: QVQLVQSGAEVKKPGASVKVSCKASGYTLTRYYMHWVRQAPGQGLEWMGIIEPGGGSTLYAQKFQGRVTMTRDTSTSTVYMELSSLRSEDTAVYYCARDDVTAADVFDYWGQGTLVTVSS VL: not shown | – | 2.1 nM | 0.00055 s⁻¹ | 270000 M⁻¹ s⁻¹ | 1.9 nM | 0.00036 s⁻¹ | 210000 M⁻¹ s⁻¹ | – | – |
| 1F11-1A3.315[Trop2]_H1.27_L1 (antibody, V domains shown) VH: QVQLVQSGAEVKKPGASVKVSCKASGYTLTRYYMHWVRQAPGQGLEWMGIIEPGGGSTDYAQKFQGRVTMTRDTSTSTVYMELSSLRSEDTAVYYCARDDVTAADVFDYWGQGTLVTVSS VL: not shown | – | 1.2 nM | 0.00047 s⁻¹ | 390000 M⁻¹ s⁻¹ | 0.93 nM | 0.00028 s⁻¹ | 330000 M⁻¹ s⁻¹ | – | – |
| 1F11-1A3.315[Trop2]_H1.24_L1 (antibody, V domains shown) VH: QVQLVQSGAEVKKPGASVKVSCKASGYTFTRYYMHWVRQAPGQGLEWMGIINPGGGSTDYAQKFQGRVTMTRDTSTSTVYMELSSLRSEDTAVYYCARDDVVAADVFDYWGQGTLVTVSS VL: not shown | – | 11 nM | 0.0026 s⁻¹ | 250000 M⁻¹ s⁻¹ | 5.7 nM | 0.0013 s⁻¹ | 240000 M⁻¹ s⁻¹ | – | – |
| 1C9A4.313 (antibody, V domains shown, Phage-derived TROP2 clone; also called 1C9A4.313[TROP2]_H1 with L1) VH: QVQLVQSGAEVKKPGSSVKVSCKASGGTFSNYAIGWVRQAPGQGLEWMGGIVPIFGVADYAQKFQGRVTITADESTSTAYMELSSLRSEDTAVYYCAREGWYLLNYFDYWGQGTLVTVSS VL: not shown | – | – | – | – | – | – | – | – | 40 nM |
| 1A3A4.312 (antibody, V domains shown, Phage-derived TROP2 clone; also called 1A3A4.312[TROP2]_H1 with L1) VH: QVQLVQSGAEVKKPGASVKVSCKASGYTFTRHYMHWVRQAPGQGLEWMGIINPGGGATSYAQKFQGRVTMTRDTSTSTVYMELSSLRSEDTAVYYCAREDYAGKWWGMDYWGQGTLVTVSS VL: not shown | – | – | – | – | – | – | – | – | 80 nM |
| 1B11A3.316 (antibody, V domains shown, Phage-derived TROP2 clone; also called 1B11A3.316[TROP2]_H1 with L1) VH: QVQLVQSGAEVKKPGASVKVSCKASGYTFTRYYMHWVRQAPGQGLEWMGIINPGGGSTIYAQKFQGRVTMTRDTSTSTVYMELSSLRSEDTAVYYCARDDVIVDAFDYWGQGTLVTVSS VL: not shown | – | – | – | – | – | – | – | – | 54 nM |
| 1B2A4.312 (antibody, V domains shown, Phage-derived TROP2 clone; also called 1B2A4.312[TROP2]_H1 with L1) VH: QVQLVQSGAEVKKPGASVKVSCKASGYTFTGSYMHWVRQAPGQGLEWMGIINPSGESTVYAQKFQGRVTMTRDTSTSTVYMELSSLRSEDTAVYYCARDPGGSWPFSYALDYWGQGTLVTVSS VL: not shown | – | – | – | – | – | – | – | – | 64 nM |
| 2C5A3.316 (antibody, V domains shown, Phage-derived TROP2 clone; also called 2C5A3.316[TROP2]_H1 with L1) VH: QVQLVQSGAEVKKPGSSVKVSCKASGGTFTTSGISWVRQAPGQGLEWMGGIVPLLGTVNYAQKFQGRVTITADESTSTAYMELSSLRSEDTAVYYCARSGAATDARYGLDYWGQGTLVTVSS VL: not shown | – | – | – | – | – | – | – | – | 345 nM |
